Results reported in paper PMC11392804.

What was measured:
[1] = SEC; Superdex 75 Increase 10/300 GL, ~2 mg ml^−1 (76 μM) protein loaded via 100 μl loop, 0.8 ml min^−1, 150 mM NaCl, 20 mM HEPES pH 7.2; monomer and dimer percentages from integrated peak areas; dimer to monomers
[2] = target: StayGold (Cytaeis uchidae (parent GFP)); assay: as above

stoichiometry N [2]	Substance	percent dimer (SEC peak areas) [1]	percent monomer (SEC peak areas) [1]
2	StayGold	the original StayGold is ~98% dimer	–
–	mStayGold (StayGold E138D)	–	the E138D mutant is more than 99% monomer
